± gives the uncertainty stated by the source.
Test: self-splicing fitness, log relative to wild type (ln ratio); higher = more splicing; Tetrahymena group I intron in knt gene, E. coli kanamycin selection, DiMSum; sequences stand for … in CUCUCU…GGAGGGAAAAGUUAUCAGGCAUGCACCUGGUAGCUAGUCUUUAAACCAAUAGAUUGCAUCGGUUUAAAAGGCAAGACCGUCAAAUUGCGGGAAAGGGGUCAACAGCCGUUCAGUACCAAGUCUCAGGGGAAACUUUGAGAUGGCCUUGCAAAGGGUAUGGUAAUAAGCUGACGGACAUGGUCCUAACCACGCAGCCAAGUCCUAAGUCAACAGAUCUUCUGUUGAUAUGGAUGCAGUUCACAGACUAAAUGUCGGUCGGGGAAGAUGUAUUCUUCUCAUAAGAUAUAGUCGGACCUCUCCUUAAUGGGAGCUAGCGGAUGAAGUGAUGCAACACUGGAGCCGCUGGGAACUAAUUUGUAUGCGAAAGUAUAUUGAUUAGUUUUGGAGUACUCGUGGUCG
Summary of the method: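 Fitness was computed with DiMSum as the error-weighted combination of replicate fold changes, kanamycin versus none, each normalised to wild type. The library randomised all eight intron nucleotides of the P1ex region, with the intron placed in the knt kanamycin-resistance gene on pET-22b(+) in E. coli BL21(DE3). Six replicate transformations were grown overnight at 37°C or 30°C on LB agar with or without 25 μg/mL kanamycin, plus 100 μg/mL carbenicillin, 50 μM IPTG and 0.2% rhamnose. Pooled colonies were amplicon-sequenced on an Illumina HiSeq 2500.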

Sequence | self-splicing fitness (ln) (30 °C) | self-splicing fitness (ln) (37 °C)
UCAGAGCAAUAUUACGGUUA | -2.88 ± 0.26 | -2.05 ± 0.22
UUAUAGCAAUAUUACGAGGA | -2.68 ± 0.3 | -1.01 ± 0.23
CUUCAGCAAUAUUACGGAAU | -1.46 ± 0.13 | -1.17 ± 0.14
AUAGAGCAAUAUUACGUGUC | -2.81 ± 0.33 | -2.17 ± 0.36
UUGCAGCAAUAUUACGACUU | -0.403 ± 0.1 | -0.588 ± 0.08
UGGAAGCAAUAUUACGAUAA | -1.6 ± 0.12 | -0.36 ± 0.15
AACAAGCAAUAUUACGUAGG | -2.76 ± 0.086 | -1.57 ± 0.1
AAUAAGCAAUAUUACGCUGU | -2.61 ± 0.23 | -1.92 ± 0.22
CUUAAGCAAUAUUACGAACC |  | -0.593 ± 0.37
ACGCAGCAAUAUUACGCCUA | -0.946 ± 0.088 | 0.0129 ± 0.093
GUAAAGCAAUAUUACGAUUG | -2.98 ± 0.18 | -0.942 ± 0.22
AGCGAGCAAUAUUACGUUUA |  | -1.96 ± 0.26
UGUUAGCAAUAUUACGGGUU | -4.27 ± 0.42 | -1.58 ± 0.17
CACAAGCAAUAUUACGACCA | -1.19 ± 0.16 | -1.05 ± 0.16
CACGAGCAAUAUUACGGUCA | -4.22 ± 0.39 | -1.54 ± 0.16
GUCGAGCAAUAUUACGUGGA |  | -2.46 ± 0.26
ACAUAGCAAUAUUACGGUCG | -1.62 ± 0.088 | -0.223 ± 0.1
CCGAAGCAAUAUUACGGCCG | -0.396 ± 0.099 | -0.442 ± 0.12
AGGUAGCAAUAUUACGCCCC | -1.92 ± 0.044 | -1.56 ± 0.063

Sequence | self-splicing fitness (ln) (30 °C) | self-splicing fitness (ln) (37 °C)
ACCAAGCAAUAUUACGUGAA | -2.5 ± 0.08 | -1.54 ± 0.091
UAUGAGCAAUAUUACGUUUG | -3.93 ± 0.26 | -1.8 ± 0.15
AAUUAGCAAUAUUACGCCGG | -2.62 ± 0.34 | -0.87 ± 0.4
CCGUAGCAAUAUUACGCGGC | -2.94 ± 0.19 | -2.51 ± 0.27
CCAUAGCAAUAUUACGUUCA | -3.17 ± 0.26 | -2.6 ± 0.44
GUCCAGCAAUAUUACGAUCU | -2.44 ± 0.16 | -0.0861 ± 0.12
GGCUAGCAAUAUUACGGGAU | -1.89 ± 0.089 | -1.03 ± 0.11
UGCCAGCAAUAUUACGCGGG | -3.4 ± 0.2 | -2.44 ± 0.22
UGUAAGCAAUAUUACGCAGC | -3.28 ± 0.35 | -1.44 ± 0.19
GUCUAGCAAUAUUACGCGAG | -1.08 ± 0.13 | 0.182 ± 0.13
AGAGAGCAAUAUUACGGUCA | -2.48 ± 0.49 | -1.97 ± 0.24
UUCAAGCAAUAUUACGCUCG | -3.13 ± 0.33 | -2.15 ± 0.2
GUGCAGCAAUAUUACGCUGG | -2.41 ± 0.12 | -1.09 ± 0.13
GGUGAGCAAUAUUACGGGAA | -1.89 ± 0.3 | -2.5 ± 0.48
GUAGAGCAAUAUUACGUCAG | -3.1 ± 0.3 | -2.07 ± 0.23
UUGAAGCAAUAUUACGGAUC | -0.951 ± 0.15 | -0.501 ± 0.18
GCUCAGCAAUAUUACGUACA | -2.16 ± 0.12 | -0.932 ± 0.14
GGACAGCAAUAUUACGUAAA | -0.529 ± 0.12 | 0.362 ± 0.16
GCGGAGCAAUAUUACGUACU | -1.85 ± 0.21 | -1.46 ± 0.22

Reference: the supplement of paper PMC7877785
